Paper PMC2588520
Where two headings read alike, the source gives them in different places.

Tests used:
[1] = target: T1, UP1 (proteolytic product of hnRNP A1) (UniProt P09651 1-196); experiment: EMSA
[2] = target: T1, UP1 (proteolytic product of hnRNP A1); experiment: EMSA; remark: listed apart in the source

T1 sequence (P09651 1-196): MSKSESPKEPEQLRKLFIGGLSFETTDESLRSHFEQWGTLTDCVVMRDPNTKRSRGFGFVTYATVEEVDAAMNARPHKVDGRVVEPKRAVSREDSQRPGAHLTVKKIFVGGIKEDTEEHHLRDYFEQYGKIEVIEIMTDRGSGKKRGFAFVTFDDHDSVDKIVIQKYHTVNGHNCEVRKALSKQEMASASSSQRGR

Binder: UGAGAAGGGCGUAGG (ssRNA) [15-mer telomerase RNA]
- binding result [1]: binds
- binding result [2]: binds
